Data: publication PMC12584617

System: T1, NsrX (Alr1976) (Anabaena sp. strain PCC 7120), ORF:44a8eb4f
T1 sequence: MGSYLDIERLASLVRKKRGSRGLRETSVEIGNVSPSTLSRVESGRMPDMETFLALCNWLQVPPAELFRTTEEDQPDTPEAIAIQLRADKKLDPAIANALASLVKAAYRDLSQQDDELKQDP
Assay: EMSA
Conditions: 10 mM Bis-Tris-HCl pH 7.5, 40 mM KCl, 0.1 mg/mL BSA, 5% glycerol, 50 ng DNA, 50-100 ng ifpkn22 competitor, 30 min room temperature; NsrX +100 uM MnCl2 (also in …)

Sequence: GGCGTGTGGCTCTTGTTCTAGTAGTACAGCCACCTTAAAGATAGCGATTGAATCCAGATTACGCGATCGCATCAACCCCAGCCTAGTAGTAGAAGCAGTTTAGTTAACAGTTAACAGTAAACCGTTAACTAACACCCAAAAGAACTTTCACAACTACATAACGAACCCATCATGAACACTAATTCTACTGGTTTTTCTGTGGAGCGATCGCCCCCTCTTCGGCGACGTTCTACAAACCCCTCACAGCCATAGCTCAACAGGCGTGAGATCCAAACACAAAGACCGACCAACTAACCAACC (double strand) [PnifHDK]
- binding: binds

Sequence: CATCTTGGAAACCAAGTTGCACAAACATCAGTAAGACAATAAAAGCAATGCCAGCTACAGCTATAAGAAAACGAATTTTCTGTTGGACTAGCTGTAGCCATGCTAAAGGAATTTTAAAATTCATATTGATTTTGTCAGTTGACAGTTGATAGTTGATAGTTGTCAGTTGACTAATGACAATTAAATTTGAATCGCTACATCAACTTGTAAGTTGGTCAAACGTCCTACCCGTTCGCTATCTGCG (double strand) [PhgdC]
- binding: binds
